# Measured values published in IntAct's records for PubMed 18761085.
# B1: Ras GTPase-activating protein 1 (Homo sapiens), P20936 (parent)
# chain: MMAAEAGSEEGGPVTAGAGGGGAAAGSSAYPAVCRVKIPAALPVAAAPYPGLVETGVAGTLGGGAALGSEFLGAGSVAGALGGAGLTGGGTAAGVAGAAAGVAGAAVAGPSGDMALTKLPTSLLAETLGPGGGFPPLPPPPYLPPLGAGLGTVDEGDSLDGPEYEEEEVAIPLTAPPTNQWYHGKLDRTIAEERLRQAGKSGSYLIRESDRRPGSFVLSFLSQMNVVNHFRIIAMCGDYYIGGRRFSSLSDLIGYYSHVSCLLKGEKLLYPVAPPEPVEDRRRVRAILPYTKVPDTDEISFLKGDMFIVHNELEDGWMWVTNLRTDEQGLIVEDLVEEVGREEDPHEGKIWFHGKISKQEAYNLLMTVGQVCSFLVRPSDNTPGDYSLYFRTNENIQRFKICPTPNNQFMMGGRYYNSIGDIIDHYRKEQIVEGYYLKEPVPMQDQEQVLNDTVDGKEIYNTIRRKTKDAFYKNIVKKGYLLKKGKGKRWKNLYFILEGSDAQLIYFESEKRATKPKGLIDLSVCSVYVVHDSLFGRPNCFQIVVQHFSEEHYIFYFAGETPEQAEDWMKGLQAFCNLRKSSPGTSNKRLRQVSSLVLHIEEAHKLPVKHFTNPYCNIYLNSVQVAKTHAREGQNPVWSEEFVFDDLPPDINRFEITLSNKTKKSKDPDILFMRCQLSRLQKGHATDEWFLLSSHIPLKGIEPGSLRVRARYSMEKIMPEEEYSEFKELILQKELHVVYALSHVCGQDRTLLASILLRIFLHEKLESLLLCTLNDREISMEDEATTLFRATTLASTLMEQYMKATATQFVHHALKDSILKIMESKQSCELSPSKLEKNEDVNTNLTHLLNILSELVEKIFMASEILPPTLRYIYGCLQKSVQHKWPTNTTMRTRVVSGFVFLRLICPAILNPRMFNIISDSPSPIAARTLILVAKSVQNLANLVEFGAKEPYMEGVNPFIKSNKHRMIMFLDELGNVPELPDTTEHSRTDLSRDLAALHEICVAHSDELRTLSNERGAQQHVLKKLLAITELLQQKQNQYTKTNDVR
# partner: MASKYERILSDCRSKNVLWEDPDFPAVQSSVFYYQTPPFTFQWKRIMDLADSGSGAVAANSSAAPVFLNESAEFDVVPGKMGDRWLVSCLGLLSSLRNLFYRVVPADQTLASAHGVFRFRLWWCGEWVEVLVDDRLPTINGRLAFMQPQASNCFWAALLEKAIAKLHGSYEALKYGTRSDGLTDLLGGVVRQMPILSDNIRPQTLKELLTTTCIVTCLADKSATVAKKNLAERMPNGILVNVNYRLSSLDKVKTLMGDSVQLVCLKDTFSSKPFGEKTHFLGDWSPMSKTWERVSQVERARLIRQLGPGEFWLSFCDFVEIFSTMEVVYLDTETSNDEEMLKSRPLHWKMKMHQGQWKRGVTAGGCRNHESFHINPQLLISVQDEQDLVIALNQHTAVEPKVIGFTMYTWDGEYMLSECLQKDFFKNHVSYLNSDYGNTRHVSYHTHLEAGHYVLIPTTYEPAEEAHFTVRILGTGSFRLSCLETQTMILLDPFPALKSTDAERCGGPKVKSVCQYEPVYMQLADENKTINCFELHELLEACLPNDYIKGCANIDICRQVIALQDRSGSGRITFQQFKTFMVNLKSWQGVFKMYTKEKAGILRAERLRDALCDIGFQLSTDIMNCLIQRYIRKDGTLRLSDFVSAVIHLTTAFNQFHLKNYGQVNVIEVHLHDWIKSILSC
# Variants of: B1
# Conditions: with canc_drome CalpC
row,Variant,effect of a mutation on the interaction
1,W317K,disrupting interaction
